Measurements taken from PMC10330844 (Traffic (Copenhagen, Denmark), 2023).

T1: Syntaxin-5 (STX5), endogenous, as precipitated by the anti-STX5 antibody (human (endogenous in HEK293T), UniProt Q13190 1-355)
T1 sequence (looked up): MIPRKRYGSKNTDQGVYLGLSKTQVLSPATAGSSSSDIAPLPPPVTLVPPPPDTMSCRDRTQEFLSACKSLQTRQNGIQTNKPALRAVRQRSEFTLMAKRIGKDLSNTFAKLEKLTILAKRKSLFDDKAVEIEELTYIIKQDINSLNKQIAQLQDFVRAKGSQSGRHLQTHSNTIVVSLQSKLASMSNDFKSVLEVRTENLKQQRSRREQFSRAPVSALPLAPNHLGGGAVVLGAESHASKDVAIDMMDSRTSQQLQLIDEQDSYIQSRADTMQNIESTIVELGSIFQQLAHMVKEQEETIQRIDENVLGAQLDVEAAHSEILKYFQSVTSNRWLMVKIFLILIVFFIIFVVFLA

T2: SNAP29-His6 (SNAP29 in pET23a) (UniProt O95721 1-258)
T2 sequence (looked up): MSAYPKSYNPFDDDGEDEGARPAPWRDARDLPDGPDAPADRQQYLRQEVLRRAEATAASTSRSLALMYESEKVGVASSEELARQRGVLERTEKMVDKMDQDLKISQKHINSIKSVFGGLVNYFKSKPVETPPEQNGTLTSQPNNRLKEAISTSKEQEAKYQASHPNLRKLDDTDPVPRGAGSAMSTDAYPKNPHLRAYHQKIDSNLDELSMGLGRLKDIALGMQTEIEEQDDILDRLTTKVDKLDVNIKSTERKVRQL

B1: SNAP29, endogenous (natural protein, human (endogenous in HEK293T), UniProt O95721 1-258, looked up)
chain: MSAYPKSYNPFDDDGEDEGARPAPWRDARDLPDGPDAPADRQQYLRQEVLRRAEATAASTSRSLALMYESEKVGVASSEELARQRGVLERTEKMVDKMDQDLKISQKHINSIKSVFGGLVNYFKSKPVETPPEQNGTLTSQPNNRLKEAISTSKEQEAKYQASHPNLRKLDDTDPVPRGAGSAMSTDAYPKNPHLRAYHQKIDSNLDELSMGLGRLKDIALGMQTEIEEQDDILDRLTTKVDKLDVNIKSTERKVRQL
B2: VTI1B, endogenous (natural protein, human (endogenous in HEK293T), UniProt Q9UEU0 1-232, looked up)
chain: MASSAASSEHFEKLHEIFRGLHEDLQGVPERLLGTAGTEEKKKLIRDFDEKQQEANETLAEMEEELRYAPLSFRNPMMSKLRNYRKDLAKLHREVRSTPLTATPGGRGDMKYGIYAVENEHMNRLQSQRAMLLQGTESLNRATQSIERSHRIATETDQIGSEIIEELGEQRDQLERTKSRLVNTSENLSKSRKILRSMSRKVTTNKLLLSIIILLELAILGGLVYYKFFRSH
B3: VAMP7, endogenous (natural protein, human (endogenous in HEK293T), UniProt P51809 1-220, looked up)
chain: MAILFAVVARGTTILAKHAWCGGNFLEVTEQILAKIPSENNKLTYSHGNYLFHYICQDRIVYLCITDDDFERSRAFNFLNEIKKRFQTTYGSRAQTALPYAMNSEFSSVLAAQLKHHSENKGLDKVMETQAQVDELKGIMVRNIDLVAQRGERLELLIDKTENLVDSSVTFKTTSRNLARAMCMKNLKLTIIIIIVSIVFIYIIVSPLCGGFTWPSCVKK
B4: GST-STX5 (rSTX5 (55-333) in pGEX-KG) (domain or fragment, UniProt Q08851 55-333, looked up)
chain: MSCRDRTQEFLSACKSLQSRQNGIQTNKPALHATRQCSEFTLMARRIGKDLSNTFAKLEKLTILAKRKSLFDDKAVEIEELTYIIKQDINSLNKQIAQLQDFVRAKGSQSGRHLQTHSNTIVVSLQSKLASMSNDFKSVLEVRTENLKQQRNRREQFSRAPVSALPLAPNNLGGGPIVLGGESRASRDVAIDMMDPRTSQQLQLIDEQDSYIQSRADTMQNIESTIVELGSIFQQLAHMVKEQEETIQRIDENVLGAQLDVEAAHSEILKYFQSVTSNR

Assays:
[1] = molecular target: T1, Syntaxin-5 (STX5), endogenous, as …; assay: co-IP
[2] = molecular target: T2, SNAP29-His6 (SNAP29 in pET23a); assay: pull-down

Row | Binder | percent of the cellular protein present in STX5 complexes (GS28 KO cells) [1] | stoichiometry N [2]
1 | B1 | ~35% | 
2 | B2 | < 25% | 
3 | B3 | < 25% | 
4 | B4 |  | 1
